Reference: patent US20140087995A1 (published 2014)
Numbered stars: 1 amine (or outer) side, 2 acyl side, 3 side chain; on linkers, the order of the positions; unused ones are H or OH. Bridge positions count the residues as written; N and C are the ends. Side chains are listed from the residue outwards. Ends that are not written are not given here. * marks the point of attachment. C20 diacid = O=C(O)CCCCCCCCCCCCCCCCCCC(=O)*; γGlu = O=C(O)[C@H](CCC(=O)[*:2])N[*:1]

B1: N^ε-[(4S)-4-carboxy-4-(19-carboxynonadecanoylamino)butanoyl]Lys[Arg1,Arg17,Pro21,Pro27,His35]-h-amylin (peptide)
peptide: K([γGlu-C20 diacid])RCNTATCATQRLANFLRHSSPNFGAIPSSTNVGSHTY-NH2
modifications: disulfide 3-8; N-terminus assumed
SMILES: CC[C@H](C)[C@H](NC(=O)[C@H](C)NC(=O)CNC(=O)[C@H](Cc1ccccc1)NC(=O)[C@H](CC(N)=O)NC(=O)[C@@H]1CCCN1C(=O)[C@H](CO)NC(=O)[C@H](CO)NC(=O)[C@H](Cc1c[nH]cn1)NC(=O)[C@H](CCCNC(=N)N)NC(=O)[C@H](CC(C)C)NC(=O)[C@H](Cc1ccccc1)NC(=O)[C@H](CC(N)=O)NC(=O)[C@H](C)NC(=O)[C@H](CC(C)C)NC(=O)[C@H](CCCNC(=N)N)NC(=O)[C@H](CCC(N)=O)NC(=O)[C@@H](NC(=O)[C@H](C)NC(=O)[C@@H]1CSSC[C@H](NC(=O)[C@H](CCCNC(=N)N)NC(=O)[C@@H](N)CCCCNC(=O)CC[C@H](NC(=O)CCCCCCCCCCCCCCCCCCC(=O)O)C(=O)O)C(=O)N[C@@H](CC(N)=O)C(=O)N[C@@H]([C@@H](C)O)C(=O)N[C@@H](C)C(=O)N[C@@H]([C@@H](C)O)C(=O)N1)[C@@H](C)O)C(=O)N1CCC[C@H]1C(=O)N[C@@H](CO)C(=O)N[C@@H](CO)C(=O)N[C@H](C(=O)N[C@@H](CC(N)=O)C(=O)N[C@H](C(=O)NCC(=O)N[C@@H](CO)C(=O)N[C@@H](Cc1c[nH]cn1)C(=O)N[C@H](C(=O)N[C@@H](Cc1ccc(O)cc1)C(N)=O)[C@@H](C)O)C(C)C)[C@@H](C)O
notes: also called compound 44
B2: N^-1-[(4S)-4-carboxy-4-(19-carboxynonadecanoylamino)butanoyl]-Gly[Arg1,Arg17,Pro21,Pro27]-h-amylin (peptide)
peptide: {C20 diacid-γGlu}-GRCNTATCATQRLANFLRHSSPNFGAIPSSTNVGSNTY-NH2
modifications: disulfide 3-8
SMILES: CC[C@H](C)[C@H](NC(=O)[C@H](C)NC(=O)CNC(=O)[C@H](Cc1ccccc1)NC(=O)[C@H](CC(N)=O)NC(=O)[C@@H]1CCCN1C(=O)[C@H](CO)NC(=O)[C@H](CO)NC(=O)[C@H](Cc1c[nH]cn1)NC(=O)[C@H](CCCNC(=N)N)NC(=O)[C@H](CC(C)C)NC(=O)[C@H](Cc1ccccc1)NC(=O)[C@H](CC(N)=O)NC(=O)[C@H](C)NC(=O)[C@H](CC(C)C)NC(=O)[C@H](CCCNC(=N)N)NC(=O)[C@H](CCC(N)=O)NC(=O)[C@@H](NC(=O)[C@H](C)NC(=O)[C@@H]1CSSC[C@H](NC(=O)[C@H](CCCNC(=N)N)NC(=O)CNC(=O)CC[C@H](NC(=O)CCCCCCCCCCCCCCCCCCC(=O)O)C(=O)O)C(=O)N[C@@H](CC(N)=O)C(=O)N[C@@H]([C@@H](C)O)C(=O)N[C@@H](C)C(=O)N[C@@H]([C@@H](C)O)C(=O)N1)[C@@H](C)O)C(=O)N1CCC[C@H]1C(=O)N[C@@H](CO)C(=O)N[C@@H](CO)C(=O)N[C@H](C(=O)N[C@@H](CC(N)=O)C(=O)N[C@H](C(=O)NCC(=O)N[C@@H](CO)C(=O)N[C@@H](CC(N)=O)C(=O)N[C@H](C(=O)N[C@@H](Cc1ccc(O)cc1)C(N)=O)[C@@H](C)O)C(C)C)[C@@H](C)O
notes: also called compound 46
B3: N^ε1-[(4S)-4-carboxy-4-(19-carboxynonadecanoylamino)butanoyl]-[Arg17,Pro21,Pro27,Glu35]-h-amylin (peptide)
peptide: K([γGlu-C20 diacid])CNTATCATQRLANFLRHSSPNFGAIPSSTNVGSETY-NH2
modifications: disulfide 2-7; N-terminus assumed
SMILES: CC[C@H](C)[C@H](NC(=O)[C@H](C)NC(=O)CNC(=O)[C@H](Cc1ccccc1)NC(=O)[C@H](CC(N)=O)NC(=O)[C@@H]1CCCN1C(=O)[C@H](CO)NC(=O)[C@H](CO)NC(=O)[C@H](Cc1c[nH]cn1)NC(=O)[C@H](CCCNC(=N)N)NC(=O)[C@H](CC(C)C)NC(=O)[C@H](Cc1ccccc1)NC(=O)[C@H](CC(N)=O)NC(=O)[C@H](C)NC(=O)[C@H](CC(C)C)NC(=O)[C@H](CCCNC(=N)N)NC(=O)[C@H](CCC(N)=O)NC(=O)[C@@H](NC(=O)[C@H](C)NC(=O)[C@@H]1CSSC[C@H](NC(=O)[C@@H](N)CCCCNC(=O)CC[C@H](NC(=O)CCCCCCCCCCCCCCCCCCC(=O)O)C(=O)O)C(=O)N[C@@H](CC(N)=O)C(=O)N[C@@H]([C@@H](C)O)C(=O)N[C@@H](C)C(=O)N[C@@H]([C@@H](C)O)C(=O)N1)[C@@H](C)O)C(=O)N1CCC[C@H]1C(=O)N[C@@H](CO)C(=O)N[C@@H](CO)C(=O)N[C@H](C(=O)N[C@@H](CC(N)=O)C(=O)N[C@H](C(=O)NCC(=O)N[C@@H](CO)C(=O)N[C@@H](CCC(=O)O)C(=O)N[C@H](C(=O)N[C@@H](Cc1ccc(O)cc1)C(N)=O)[C@@H](C)O)C(C)C)[C@@H](C)O
notes: also called compound 27
B4: N^ε1-[(4S)-4-carboxy-4-[[(4S)-4-carboxy-4-(19-carboxynonadecanoylamino)butanoyl]amino]butanoyl]-[Asp14,Arg17,Pro21,Pro27,Asp35]-h-amylin (peptide)
peptide: K([γGlu-γGlu-C20 diacid])CNTATCATQRLADFLRHSSPNFGAIPSSTNVGSDTY-NH2
modifications: disulfide 2-7; N-terminus assumed
SMILES: CC[C@H](C)[C@H](NC(=O)[C@H](C)NC(=O)CNC(=O)[C@H](Cc1ccccc1)NC(=O)[C@H](CC(N)=O)NC(=O)[C@@H]1CCCN1C(=O)[C@H](CO)NC(=O)[C@H](CO)NC(=O)[C@H](Cc1c[nH]cn1)NC(=O)[C@H](CCCNC(=N)N)NC(=O)[C@H](CC(C)C)NC(=O)[C@H](Cc1ccccc1)NC(=O)[C@H](CC(=O)O)NC(=O)[C@H](C)NC(=O)[C@H](CC(C)C)NC(=O)[C@H](CCCNC(=N)N)NC(=O)[C@H](CCC(N)=O)NC(=O)[C@@H](NC(=O)[C@H](C)NC(=O)[C@@H]1CSSC[C@H](NC(=O)[C@@H](N)CCCCNC(=O)CC[C@H](NC(=O)CC[C@H](NC(=O)CCCCCCCCCCCCCCCCCCC(=O)O)C(=O)O)C(=O)O)C(=O)N[C@@H](CC(N)=O)C(=O)N[C@@H]([C@@H](C)O)C(=O)N[C@@H](C)C(=O)N[C@@H]([C@@H](C)O)C(=O)N1)[C@@H](C)O)C(=O)N1CCC[C@H]1C(=O)N[C@@H](CO)C(=O)N[C@@H](CO)C(=O)N[C@H](C(=O)N[C@@H](CC(N)=O)C(=O)N[C@H](C(=O)NCC(=O)N[C@@H](CO)C(=O)N[C@@H](CC(=O)O)C(=O)N[C@H](C(=O)N[C@@H](Cc1ccc(O)cc1)C(N)=O)[C@@H](C)O)C(C)C)[C@@H](C)O
notes: also called compound 2
B5: N{Alpha-1}-[(4S)-4-carboxy-4-(19-carboxynonadecanoylamino)butanoyl]-[Glu14,Arg17,Pro21,Pro27,Lys34]-h-amylin (peptide)
peptide: {C20 diacid-γGlu}-KCNTATCATQRLAEFLRHSSPNFGAIPSSTNVGKNTY-NH2
modifications: disulfide 2-7
SMILES: CC[C@H](C)[C@H](NC(=O)[C@H](C)NC(=O)CNC(=O)[C@H](Cc1ccccc1)NC(=O)[C@H](CC(N)=O)NC(=O)[C@@H]1CCCN1C(=O)[C@H](CO)NC(=O)[C@H](CO)NC(=O)[C@H](Cc1c[nH]cn1)NC(=O)[C@H](CCCNC(=N)N)NC(=O)[C@H](CC(C)C)NC(=O)[C@H](Cc1ccccc1)NC(=O)[C@H](CCC(=O)O)NC(=O)[C@H](C)NC(=O)[C@H](CC(C)C)NC(=O)[C@H](CCCNC(=N)N)NC(=O)[C@H](CCC(N)=O)NC(=O)[C@@H](NC(=O)[C@H](C)NC(=O)[C@@H]1CSSC[C@H](NC(=O)[C@H](CCCCN)NC(=O)CC[C@H](NC(=O)CCCCCCCCCCCCCCCCCCC(=O)O)C(=O)O)C(=O)N[C@@H](CC(N)=O)C(=O)N[C@@H]([C@@H](C)O)C(=O)N[C@@H](C)C(=O)N[C@@H]([C@@H](C)O)C(=O)N1)[C@@H](C)O)C(=O)N1CCC[C@H]1C(=O)N[C@@H](CO)C(=O)N[C@@H](CO)C(=O)N[C@H](C(=O)N[C@@H](CC(N)=O)C(=O)N[C@H](C(=O)NCC(=O)N[C@@H](CCCCN)C(=O)N[C@@H](CC(N)=O)C(=O)N[C@H](C(=O)N[C@@H](Cc1ccc(O)cc1)C(N)=O)[C@@H](C)O)C(C)C)[C@@H](C)O
notes: also called compound 36
B6: N^ε1-[(4S)-4-carboxy-4-(19-carboxynonadecanoylamino)butanoyl]-[Arg17,Pro21,Pro27,Lys35]-h-amylin (peptide)
peptide: K([γGlu-C20 diacid])CNTATCATQRLANFLRHSSPNFGAIPSSTNVGSKTY-NH2
modifications: disulfide 2-7; N-terminus assumed
SMILES: CC[C@H](C)[C@H](NC(=O)[C@H](C)NC(=O)CNC(=O)[C@H](Cc1ccccc1)NC(=O)[C@H](CC(N)=O)NC(=O)[C@@H]1CCCN1C(=O)[C@H](CO)NC(=O)[C@H](CO)NC(=O)[C@H](Cc1c[nH]cn1)NC(=O)[C@H](CCCNC(=N)N)NC(=O)[C@H](CC(C)C)NC(=O)[C@H](Cc1ccccc1)NC(=O)[C@H](CC(N)=O)NC(=O)[C@H](C)NC(=O)[C@H](CC(C)C)NC(=O)[C@H](CCCNC(=N)N)NC(=O)[C@H](CCC(N)=O)NC(=O)[C@@H](NC(=O)[C@H](C)NC(=O)[C@@H]1CSSC[C@H](NC(=O)[C@@H](N)CCCCNC(=O)CC[C@H](NC(=O)CCCCCCCCCCCCCCCCCCC(=O)O)C(=O)O)C(=O)N[C@@H](CC(N)=O)C(=O)N[C@@H]([C@@H](C)O)C(=O)N[C@@H](C)C(=O)N[C@@H]([C@@H](C)O)C(=O)N1)[C@@H](C)O)C(=O)N1CCC[C@H]1C(=O)N[C@@H](CO)C(=O)N[C@@H](CO)C(=O)N[C@H](C(=O)N[C@@H](CC(N)=O)C(=O)N[C@H](C(=O)NCC(=O)N[C@@H](CO)C(=O)N[C@@H](CCCCN)C(=O)N[C@H](C(=O)N[C@@H](Cc1ccc(O)cc1)C(N)=O)[C@@H](C)O)C(C)C)[C@@H](C)O
notes: also called compound 35
B7: N^α1-[2-[2-[2-[[2-[2-[2-[[(4S)-4-carboxy-4-(19-carboxynonadecanoylamino)butanoyl]amino]ethoxy]ethoxy]acetyl]amino]ethoxy]ethoxy]acetyl]-[Glu14,Arg17,Pro21,Pro27 … (peptide)
peptide: KCNTATCATQRLAEFLRHSSPNFGAIPSSTNVGSNTY
modifications: C20 diacid-gGlu-2xOEG on the alpha amino group of the N-terminal residue; Cys2-Cys7 disulfide and C-terminal amide as in human amylin
notes: also called compound 19

Biological target: T1, human calcitonin receptor (human, UniProt P30988 25-474)
T1 sequence (looked up): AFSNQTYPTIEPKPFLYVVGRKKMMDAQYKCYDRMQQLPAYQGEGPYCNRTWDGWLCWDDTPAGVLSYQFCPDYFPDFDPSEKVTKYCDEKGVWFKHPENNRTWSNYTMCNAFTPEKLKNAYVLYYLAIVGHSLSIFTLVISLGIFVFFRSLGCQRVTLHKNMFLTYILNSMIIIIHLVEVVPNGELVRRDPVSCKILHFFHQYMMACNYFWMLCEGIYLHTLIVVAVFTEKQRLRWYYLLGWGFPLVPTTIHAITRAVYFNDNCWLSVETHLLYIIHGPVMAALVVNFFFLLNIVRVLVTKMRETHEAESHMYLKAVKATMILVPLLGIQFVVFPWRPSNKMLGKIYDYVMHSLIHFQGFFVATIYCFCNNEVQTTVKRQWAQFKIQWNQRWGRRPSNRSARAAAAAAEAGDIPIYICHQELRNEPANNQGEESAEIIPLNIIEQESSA
Experiment: cell-based or functional assay

| Binder | Ratio hCT/hAmylin funct. (hCTR EC50 against hAmylin-R EC50) | hCTR funct. EC50 [nM] |
| --- | --- | --- |
| B1 | 24 | 4.75 |
| B2 | 10.2 | 0.899 |
| B3 | 22.6 | 3 |
| B4 | 16.4 | 3 |
| B5 | 6.8 | 1.28 |
| B6 | 15 | 5.46 |
| B7 | 17.4 | 5.32 |

Biological target: T2, human amylin receptor (amylin 3(a) receptor: human calcitonin receptor plus RAMP-3) (human, UniProt P30988 25-474; O60896 24-148, limits assumed)
T2 sequence (looked up) 1: T1 sequence (looked up)
T2 sequence (looked up) 2: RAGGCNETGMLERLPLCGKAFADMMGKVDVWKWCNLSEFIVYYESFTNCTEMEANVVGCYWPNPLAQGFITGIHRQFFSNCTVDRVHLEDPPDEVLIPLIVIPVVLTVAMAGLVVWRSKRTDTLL
Experiment: cell-based or functional assay

| Binder | hAmylin-R funct. EC50 [nM] |
| --- | --- |
| B1 | 0.198 |
| B2 | 0.088 |
| B3 | 0.133 |
| B4 | 0.182 |
| B5 | 0.189 |
| B6 | 0.364 |
| B7 | 0.307 |
